Two molecules from publication PMC6823927 can be followed below.

Assay [1] addresses 175Cys-Fab (meditope-enabled trastuzumab Fab with Ala175 of the heavy chain changed to cysteine). The experiment in a line: cross-linking.
Assay [2] has as its target 175Cys-IgG1 (meditope-enabled trastuzumab IgG1 with Ala175 of the heavy chain changed to cysteine). The experiment in a line: disulfide conjugation, dye-antibody ratio.

Non-standard residues stand in square brackets, D forms with d. No end group written: not given here. Dip = N[C@H](C(=O)O)C(c1ccccc1)c1ccccc1

As to SQFD[Dip]CTRRLQSGGSK [SQFDA(Ph)2… meditope], the stoichiometry N (meditope per Fab) in assay [1] amounted to 1.
For the molecule SQFD[Dip]CTRRLQSGGSK-Alexa647 [SQFDA(Ph)2…-Alexa647 meditope], in assay [2], the stoichiometry N came to 1.8 dyes per IgG.
